Test results reported in article PMC7336453, “Inhibition of multiple defense responsive pathways by CaWRKY70 transcription factor promotes susceptibility in chickpea under Fusarium oxysporum stress condition”.

T1: His6-CaWRKY40 (Cicer arietinum, UniProt A0A1S2YMJ3 1-315)
T1 sequence: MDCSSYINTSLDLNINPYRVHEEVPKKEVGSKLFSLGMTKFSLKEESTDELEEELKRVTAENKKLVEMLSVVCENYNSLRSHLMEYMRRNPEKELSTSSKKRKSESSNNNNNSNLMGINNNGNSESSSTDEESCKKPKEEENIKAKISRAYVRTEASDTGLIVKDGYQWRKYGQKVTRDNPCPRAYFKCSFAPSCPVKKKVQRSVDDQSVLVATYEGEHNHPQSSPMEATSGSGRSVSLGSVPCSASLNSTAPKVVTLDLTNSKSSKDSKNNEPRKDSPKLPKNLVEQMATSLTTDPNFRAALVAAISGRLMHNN

B1: pCaMPK9 W-box 1 (dsDNA)
DNA 1: ATTGGTTCAGTTTTGTAGTCAACAAAATCT
DNA 2: AGATTTTGTTGACTACAAAACTGAACCAAT
B2: pCaMPK9 W-box 2 (dsDNA)
DNA 1: TTAAAATTATTTGTCATCTAAAAGAATCA
DNA 2: TGATTCTTTTAGATGACAAATAATTTTAA

Tests used:
His6-CaWRKY40 [1] = target: T1, His6-CaWRKY40; test: EMSA; 200 ng protein; competed by 20 molar excess cold probe; 20 mM HEPES pH 7.5, 100 mM KCl, 0.2 mM EDTA, 1 mM DTT, 2 mM MgCl2, 1 ug poly dI-dC; 10 ng probe, 100-200 ng protein; 30 min room temperature; 5% PAGE 0.5x TBE at 4 C; conditions: protein: recombinant; tags: 6xHis (pET28a); label: labelled (32P)
His6-CaWRKY40 [2] = target: T1, His6-CaWRKY40; test: EMSA; 200 ng protein; competed by 50 molar excess cold probe; 20 mM HEPES pH 7.5, 100 mM KCl, 0.2 mM EDTA, 1 mM DTT, 2 mM MgCl2, 1 ug poly dI-dC; 10 ng probe, 100-200 ng protein; 30 min room temperature; 5% PAGE 0.5x TBE at 4 C; conditions: protein: recombinant; tags: 6xHis (pET28a); label: labelled (32P)

Binder | binding result (His6-CaWRKY40 [1]) | binding result (His6-CaWRKY40 [2])
B1 | binds | 
B2 |  | binds
